The values that follow come from publication PMC4394509.

What all share (assay): FRET or BRET; acceptor-bleaching FRET at kinetochores of transfected human cells (HeLa, HEp-2, U2OS), in vivo or in situ; donor EGFP, acceptor mCherry; E_FRET of a bleached region compared with EVAR of an unbleached region
For assay [1], the target named is EGFP-CENP-U (UniProt Q71F23).
The target in assay [2] is mCherry-CENP-S (UniProt Q8N2Z9).
In assay [3] the target is CENP-S-mCherry (UniProt Q8N2Z9).
The target in assay [4] is CENP-B-mCherry (UniProt P07199).
The target in assay [5] is mCherry-H3.1 (human) (UniProt P68431).
In assay [6] the target is mCherry-CENP-B (UniProt P07199).

UniProt Q71F23, sequence (Q71F23 whole entry): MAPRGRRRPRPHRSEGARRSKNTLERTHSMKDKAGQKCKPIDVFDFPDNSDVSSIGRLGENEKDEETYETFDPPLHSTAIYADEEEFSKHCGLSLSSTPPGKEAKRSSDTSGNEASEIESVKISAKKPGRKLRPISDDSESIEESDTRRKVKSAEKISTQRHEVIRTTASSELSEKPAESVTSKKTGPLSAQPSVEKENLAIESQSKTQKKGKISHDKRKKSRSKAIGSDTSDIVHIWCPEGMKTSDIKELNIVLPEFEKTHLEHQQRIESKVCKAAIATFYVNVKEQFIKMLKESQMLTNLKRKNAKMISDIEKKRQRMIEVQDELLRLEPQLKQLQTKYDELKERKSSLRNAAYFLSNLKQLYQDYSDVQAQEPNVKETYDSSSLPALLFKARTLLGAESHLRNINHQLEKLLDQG

In the case of “CENP-M-mCherry (from UniProt Q9NSP4 1-180) (natural protein)”, in assay [1], the mean E FRET % turned out to be 6.08% and the ΔE % was 7.86%.
“CENP-M-EGFP (from UniProt Q9NSP4 1-180) (natural protein)”: in assay [2], the mean E FRET % was determined as 4% and the ΔE % amounted to 4.78%. In assay [3], this substance showed a mean E FRET % of 3.49% and a ΔE % of 3.91%.
For “EGFP-CENP-W (from UniProt Q5EE01 1-88) (natural protein)”, in assay [4], the mean E FRET % turned out to be 4.37% and the ΔE % was 3.6%.
Regarding “CENP-W-EGFP (from UniProt Q5EE01 1-88) (natural protein)”, in assay [5], the mean E FRET % came to 3.7% and the ΔE % came out at 5.8%. In assay [6], the mean E FRET % was 5.07% and the ΔE % came out at 4.4%.
